Tests used:
[1] = molecular target: C11+C661-SecA (Escherichia coli) (UniProt P10408); assay: cross-linking
[2] = molecular target: C403-SecA (Escherichia coli) (UniProt P10408); assay: cross-linking

stoichiometry N [1] | stoichiometry N [2] | Substance
2 |  | C11+C661-SecA (from UniProt P10408 1-901) (enzyme)
 | 2 | C403-SecA (from UniProt P10408 1-901) (enzyme)
